Results from patent US20030120051A1 (SUGEN, published 2003).

Assays:
human c-Src = human c-Src (human, UniProt P12931 2-536); test: immunoprecipitation and immunoblotting of endogenous proteins in IMR-32 cells
[1] = molecular target: endogenous c-Src of rat GH3 cells (rat, UniProt Q9WUD9 2-536, limits assumed); test: immunoprecipitation and immunoblotting of endogenous proteins in GH3 cells

Binder	binding result (human c-Src)	binding result [1]
human CASPR/p190 (receptor, Endogenous in IMR-32 neuroblastoma cells) WGYYGCDEELVGPLYARSLGASSYYSLLTAPRFARLHGISGWSPRIGDPNPWLQIDLMKKHRIRAVATQGSFNSWDWVTRYMLLYGDRVDSWTPFYQRGHNSTFFGNVNESAVVRHDLHFHFTARYIRIVPLAWNPRGKIGLRLGLYGCPYKADILYFDGDDAISYRFPRGVSRSLWDVFAFSFKTEEKDGLLLHAEGAQGDYVTLELEGAHLLLHMSLGSSPIQPRPGHTTVSAGGVLNDQHWHYVRVDRFGRDVNFTLDGYVQRFILNGDFERLNLDTEMFIGGLVGAARKNLAYRHNFRGCIENVIFNRVNIADLAVRRHSRITFEGKVAFRCLDPVPHPINFGGPHNFVQVPGFPRRGRLAVSFRFRTWDLTGLLLFSRLGDGLGHVELTLSEGQVNVSIAQSGRKKLQFAAGYRLNDGFWHEVNFVAQENHAVISIDDVEGAEVRVSYPLLIRTGTSYFFGGCPKPASRWDCHSNQTAFHGCMELLKVDGQLVNLTLVEGRRLGFYAEVLFDTCGITDRCSPNMCEHDGRCYQSWDDFICYCELTGYKGETCHTPLYKESCEAYRLSGKTSGNFTIDPDGSGPLKPFVVYCDIRENRAWTVVRHDRLWTTRVTGSSMERPFLGAIQYWNASWEEVSALANASQHCEQWIEFSCYNSRLLNTAGGYPYSFWIGRNEEQHFYWGGSQPGIQRCACGLDRSCVDPALYCNCDADQPQWRTDKGLLTFVDHLPVTQVVIGDTNRSTSEAQFFLRPLRCYGDRNSWNTISFHTGAALRFPPIRANHSLDVSFYFRTSAPSGVFLENMGGPYCQWRRPYVRVELNTSRDVVFAFDVGNGDENLTVHSDDFEFNDDEWHLVRAEINVKQARLRVDHRPWVLRPMPLQTYIWMEYDQPLYVGSAELKRRPFVGCLRAMRLNGVTLNLEGRANASEGTSPNCTGHCAHPRLPCFHGGRCVERYSYYTCDCDLTAFDGPYCNHDIGGFFEPGTWMRYNLQSALRSAAREFSHMLSRPVPGYEPGYIPGYDTPGYVPGYHGPGYRLPDYPRPGRPVPGYRGPVYNVTGEEVSFSFSTSSAPAVLLYVSSFVRDYMAVLIKDDGTLQLRYQLGTSPYVYQLTTRPVTDGQPHSINITRVYRNLFIQVDYFPLTEQKFSLLVDSQLDSPKALYLGRVMETGVIDPEIQRYNTPGFSGCLSGVRFNNVAPLKTHFRTPRPMTAELAEALRVQGELSESNCGAMPRLVSEVPPELDPWYLPPDFPYYHDEGWVAILLGFLVAFLLLGLVGMLVLFYLQNHRYKGSYHTNEPKAAHEYHPGSKPPLPTSGPAQVPTPTAAPNQAPASAPAPAPTPAPAPGPRDQNLPQILEESRSE	no binding	
rat CASPR/p190 (receptor, Endogenous in GH3 cells and rat brain, or expressed from pCM190R in COS7 cells; read from membrane lysates; no cleavage site stated; also called Contactin ASsociated PRotein; 190 kDa protein) WGYYGCNEELVGPLYARSLGASSYYGLFTTARFARLHGISGWSPRIGDPNPWLQIDLMKKHRIRAVATQGAFNSWDWVTRYMLLYGDRVDSWTPFYQQGHNATFFGNVNDSAVVRHDLHYHFTARYIRIVPLAWNPRGKIGLRLGIYGCPYTSNILYFDGDDAISYRFQRGASQSLWDVFAFSFKTEEKDGLLLHTEGSQGDYVTLELQGAHLLLHMSLGSSPIQPRPGHTTVSAGGVLNDLSWHYVRVDRYGREANLTLDGYVHRFVLNGDFERLNLENEIFIGGLVGAARKNLAYRHNFRGCIENVIYNRINIAEMAVQRHSRITFEGNVAFRCLDPVPHPINFGGPHNFVQVPGFPRRGRLAVSFRFRTWDLTGLLLFSRLGDGLGHVELMLSEGQVNVSIAQTGRKKLQFAAGYRLNDGFWHEVNFVAQENHAVISIDDVEGAEVRVSYPLLIRTGTSYFFGGCPKPASRWGCHSNQTAFHGCMELLKVDGQLVNLTLVEFRKLGYFAEVLFDTCGITDRCSPNMCEHDGRCYQSWDDFICYCELTGYKGVTCHEPLYKESCEAYRLSGKYSGNYTIDPDGSGPLKPFVVYCDIRENRAWTVVRHDRLWTTRVTGSSMDRPFLGAIQYWNASWEEVSALANASQHCEQWIEFSCYNSRLLNTAGGYPYSFWIGRNEEQHFYWGGSQPGIQRCACGLDQSCIDPALHCNCDADQPQWRTDKGLLTFVDHLPVTQVVIGDTNRSSSEAQFFLRPLRCYGDRNSWNTISFRTGAALRFPPIRANHSLDVSFYFRTSAPSGVFLENMGGPFCQWRRPYVRVELNTSRDVVFAFDIGNGDENLTVHSDDFEFNDDEWHLVRAEINVKQARLRVDHRPWVLRPMPLQTYIWLEYDQPLYVGSAELKRRPFVGCLRAMRLNGVTLNLEGRANASEGTFPNCTGHCTHPRFPCFHGGRCVERYSYYTCDCDLTAFDGPYCNHDIGGFFETGTWMRYNLQSALRSAAQEFSHMLSRPVPGYEPGYIPGYDTPGYVPGYHGPGYRLPDYPRPGRPVPGYRGPVYNVTGEEVSFSFSTSSAPAVLLYVSSFVRDYMAVLIKEDGTLQLRYQLGTSPYVYQLTTRPVTDGQPHSVNITRVYRNLFIQVDYFPLTEQKFSLLVDSQLDSPKALYLGRVMETGVIDPEIQRYNTPGFSGCLSGVRFNNVAPLKTHFRTPRPMTAELAEAMRVQGELSESNCGAMPRLVSEVPPELDPWYLPPDFPYYHDDGWIAILLGFLVAFLLLGLVGMLVLFYLQNHRYKGSYHTNEPKATHDSHPGGKAPLPPSGPAQAPAPTPAPTQVPTPAPAPASGPGPRDQNLPQILEESRSE		no binding
